From article PMC2192027

Assays:
[1] = target: CLIMP-63 luminal fragment 268–459 (UniProt Q07065); assay: AUC
[2] = target: recombinant full-length luminal segment of CLIMP-63 (amino acids 127–601) (UniProt Q07065); assay: AUC

| stoichiometry N [1] | percent sedimenting at 26 S (1.5 M urea) [2] [%] | percent sedimenting at 26 S (2 M urea) [2] [%] | percent sedimenting at 26 S (2.5 M urea) [2] [%] | Substance |
| --- | --- | --- | --- | --- |
| 2 |  |  |  | CLIMP-63 luminal fragment 268–459 (from UniProt Q07065 268-459) (domain or fragment) |
|  | 80 | 50 | 20 | recombinant full-length luminal segment of CLIMP-63 (amino acids 127–601) (from UniProt Q07065 127-601) (domain or fragment) |
